Source: article PMC7319273

Key:
[1] = molecular target: SARS-CoV-2 Spike protein extracellular domain (S-ECD), as used in ELISA and BLI (SARS-CoV-2) (UniProt P0DTC2)
[2] = molecular target: SARS-CoV-2 Spike protein extracellular domain (S-ECD), as used in ELISA and BLI (SARS-CoV-2) (UniProt P0DTC2); assay: BLI

4A8 (human monoclonal antibody), sequence (VH): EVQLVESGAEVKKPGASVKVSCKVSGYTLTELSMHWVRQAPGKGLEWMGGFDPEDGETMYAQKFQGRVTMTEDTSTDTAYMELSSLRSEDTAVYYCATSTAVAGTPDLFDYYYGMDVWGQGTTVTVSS
4A8 (human monoclonal antibody), sequence (VL): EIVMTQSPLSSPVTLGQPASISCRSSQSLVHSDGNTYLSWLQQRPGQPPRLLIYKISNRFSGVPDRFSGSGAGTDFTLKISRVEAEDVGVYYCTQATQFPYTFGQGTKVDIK

4A8 (human monoclonal antibody)
neutralization of authentic SARS-CoV-2 in Vero-E6 cells, EC50 [1]: 0.61 µg/mL
Kd [2]: < 2.14 nM
